According to publication PMC8233664, “CAR T cells targeting tumor-associated exons of glypican 2 regress neuroblastoma in mice” (Cell Reports Medicine, 2021):

Experiments:
[1] = target: cell surface GPC2 on neuroblastoma cells (Homo sapiens, UniProt Q8N158); assay: cell-based or functional assay
[2] = target: human GPC2 stably overexpressed on G10 (A431) and F8 (IMR5) cells (Homo sapiens, UniProt Q8N158); assay: cell-based or functional assay
[3] = target: T1, recombinant human GPC2 protein (Homo sapiens, UniProt Q8N158); assay: BLI; Octet RED96; His-tagged GPC2 immobilised on Ni-NTA biosensors; association 600 s, dissociation 1800 s; settings: both partners purified
T1 construct: human glypican 2 (GPC2), recombinant protein from R&D Systems; also called human glypican 2; His-tagged GPC2 protein; source: bought: R&D Systems
T1 sequence (Q8N158 24-554): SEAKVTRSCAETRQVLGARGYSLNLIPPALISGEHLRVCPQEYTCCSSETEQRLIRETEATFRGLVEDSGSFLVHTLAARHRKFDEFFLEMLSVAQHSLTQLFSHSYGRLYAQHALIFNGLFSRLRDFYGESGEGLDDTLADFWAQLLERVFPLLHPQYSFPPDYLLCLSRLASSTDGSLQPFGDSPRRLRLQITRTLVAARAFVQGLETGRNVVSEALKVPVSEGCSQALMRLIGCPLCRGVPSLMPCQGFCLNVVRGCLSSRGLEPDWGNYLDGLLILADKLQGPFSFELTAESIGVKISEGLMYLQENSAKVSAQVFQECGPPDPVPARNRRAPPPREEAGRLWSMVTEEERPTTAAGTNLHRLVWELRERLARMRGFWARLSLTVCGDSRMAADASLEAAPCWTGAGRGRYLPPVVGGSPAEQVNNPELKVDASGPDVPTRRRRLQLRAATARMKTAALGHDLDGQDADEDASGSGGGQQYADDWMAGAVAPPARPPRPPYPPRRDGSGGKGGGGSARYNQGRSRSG

[4] = target: T2, GPC2 exon 3 peptide 10 (Homo sapiens); assay: ELISA; single 18-residue peptides at 5 μg/ml in PBS coated overnight; 1 μg/ml CT3; detected with goat anti-mouse IgG-HRP; settings: both partners purified
T2 construct: human glypican 2, 18-residue peptide no; 10 of the overlapping library (9 residues overlap), in exon 3; source: synthetic peptide (Genscript)
T2 chain: RKFDEFFLEMLSVAQHSL

[5] = target: T3, GPC2 exon 3 peptide 11 (Homo sapiens); assay: as above; settings: both partners purified
T3 construct: human glypican 2, 18-residue peptide no; 11 of the overlapping library (9 residues overlap), in exon 3; source: synthetic peptide (Genscript)
T3 chain: MLSVAQHSLTQLFSHSYG

[6] = target: T4, GPC2 exon 3 peptide 12 (Homo sapiens); assay: as above; settings: both partners purified
T4 construct: human glypican 2, 18-residue peptide no; 12 of the overlapping library (9 residues overlap), in exon 3; source: synthetic peptide (Genscript)
T4 chain: TQLFSHSYGRLYAQHALI

[7] = target: T5, GPC2 exon 3 peptide 13 (Homo sapiens); assay: as above; settings: both partners purified
T5 construct: human glypican 2, 18-residue peptide no; 13 of the overlapping library (9 residues overlap), in exon 3; source: synthetic peptide (Genscript)
T5 chain: RLYAQHALIFNGLFSRLR

[8] = target: T6, GPC2 exon 3 peptide 14 (Homo sapiens); assay: as above; settings: both partners purified
T6 construct: human glypican 2, 18-residue peptide no; 14 of the overlapping library (9 residues overlap), in exon 3; source: synthetic peptide (Genscript)
T6 chain: FNGLFSRLRDFYGESGEG

[9] = target: T7, GPC2 exon 3 peptide 15 (Homo sapiens); assay: as above; settings: both partners purified
T7 construct: human glypican 2, 18-residue peptide no; 15 of the overlapping library (9 residues overlap), in exon 3; source: synthetic peptide (Genscript)
T7 chain: DFYGESGEGLDDTLADFW

[10] = target: T8, GPC2 exon 3 peptide 16 (Homo sapiens); assay: as above; settings: both partners purified
T8 construct: human glypican 2, 18-residue peptide no; 16 of the overlapping library (9 residues overlap), in exon 3; source: synthetic peptide (Genscript)
T8 chain: LDDTLADFWAQLLERVFP

[11] = target: T9, GPC2 exon 3 peptide 17 (Homo sapiens); assay: as above; settings: both partners purified
T9 construct: human glypican 2, 18-residue peptide no; 17 of the overlapping library (9 residues overlap), in exon 3; source: synthetic peptide (Genscript)
T9 chain: AQLLERVFPLLHPQYSFP

[12] = target: T10, GPC2 exon 3 peptide 18 (Homo sapiens); assay: as above; settings: both partners purified
T10 construct: human glypican 2, 18-residue peptide no; 18 of the overlapping library (9 residues overlap), in exon 3; source: synthetic peptide (Genscript)
T10 chain: LLHPQYSFPPDYLLCLSR

[13] = target: T11, GPC2 exon 3 peptide 19 (Homo sapiens); assay: as above; settings: both partners purified
T11 construct: human glypican 2, 18-residue peptide no; 19 of the overlapping library (9 residues overlap), in exon 3; source: synthetic peptide (Genscript)
T11 chain: PDYLLCLSRLASSTDGSL

[14] = target: T12, GPC2 exon 3 peptide 20 (Homo sapiens); assay: as above; settings: both partners purified
T12 construct: human glypican 2, 18-residue peptide no; 20 of the overlapping library (9 residues overlap), in exon 3; source: synthetic peptide (Genscript)
T12 chain: LASSTDGSLQPFGDSPRR

[15] = target: T13, GPC2 exon 3 peptide 21 (Homo sapiens); assay: as above; settings: both partners purified
T13 construct: human glypican 2, 18-residue peptide no; 21 of the overlapping library (9 residues overlap), in exon 3; source: synthetic peptide (Genscript)
T13 chain: QPFGDSPRRLRLQITRTL

[16] = target: T14, recombinant human GPC5 protein (Homo sapiens, UniProt P78333); assay: ELISA; CT3 at 1 μg/ml on human GPC1 through GPC6 and mouse GPC2 proteins (R&D Systems) and GPC2 exon 3-hFc; detected with goat anti-mouse IgG-HRP; settings: both partners purified
T14 construct: human glypican 5, recombinant protein from R&D Systems; source: bought: R&D Systems
T14 sequence (P78333 25-572): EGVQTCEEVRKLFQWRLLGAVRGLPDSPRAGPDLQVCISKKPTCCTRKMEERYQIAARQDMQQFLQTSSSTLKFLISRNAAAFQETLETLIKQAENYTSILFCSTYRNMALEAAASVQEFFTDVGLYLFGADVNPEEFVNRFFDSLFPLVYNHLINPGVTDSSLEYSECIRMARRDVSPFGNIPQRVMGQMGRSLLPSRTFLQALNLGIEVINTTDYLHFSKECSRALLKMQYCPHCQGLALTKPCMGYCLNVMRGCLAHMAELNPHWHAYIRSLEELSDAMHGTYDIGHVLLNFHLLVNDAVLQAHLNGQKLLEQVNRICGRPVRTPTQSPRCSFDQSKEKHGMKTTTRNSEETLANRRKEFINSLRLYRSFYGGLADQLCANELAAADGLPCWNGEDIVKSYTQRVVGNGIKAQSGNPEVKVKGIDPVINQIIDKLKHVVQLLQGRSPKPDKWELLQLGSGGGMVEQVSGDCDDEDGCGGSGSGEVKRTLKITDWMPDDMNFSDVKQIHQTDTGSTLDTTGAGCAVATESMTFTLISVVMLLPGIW

[17] = target: T15, recombinant human GPC6 protein (Homo sapiens, UniProt Q9Y625); assay: as above; settings: both partners purified
T15 construct: human glypican 6, recombinant protein from R&D Systems; source: bought: R&D Systems
T15 sequence (Q9Y625 24-529): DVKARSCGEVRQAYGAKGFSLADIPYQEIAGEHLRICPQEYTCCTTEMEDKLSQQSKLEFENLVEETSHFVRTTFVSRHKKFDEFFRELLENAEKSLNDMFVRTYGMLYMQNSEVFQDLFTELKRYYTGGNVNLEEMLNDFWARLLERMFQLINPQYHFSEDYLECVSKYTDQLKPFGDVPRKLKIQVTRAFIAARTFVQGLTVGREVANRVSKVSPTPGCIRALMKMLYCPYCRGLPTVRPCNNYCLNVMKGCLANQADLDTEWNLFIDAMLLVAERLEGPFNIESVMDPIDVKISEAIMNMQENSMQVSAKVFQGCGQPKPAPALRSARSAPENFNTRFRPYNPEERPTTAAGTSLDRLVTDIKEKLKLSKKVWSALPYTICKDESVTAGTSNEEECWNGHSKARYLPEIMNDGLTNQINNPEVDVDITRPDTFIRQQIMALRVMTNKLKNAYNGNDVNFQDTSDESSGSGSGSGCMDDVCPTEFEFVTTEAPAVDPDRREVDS

[18] = target: T16, human GPC2 exon3-hFc protein (Homo sapiens); assay: as above; settings: both partners purified
T16 construct: human glypican 2, the stretch encoded by exon 3 (of transcript GPC2-201); also called recombinant exon 3 fragment of GPC2; exon 3 of GPC2; source: cloned into the pVRC8400 expression plasmid
T16 chain: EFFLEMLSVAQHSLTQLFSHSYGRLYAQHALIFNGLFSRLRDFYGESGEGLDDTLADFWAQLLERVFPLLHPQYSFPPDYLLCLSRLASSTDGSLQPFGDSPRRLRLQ

[19] = target: T17, recombinant human GPC4 protein (Homo sapiens, UniProt O75487); assay: as above; settings: both partners purified
T17 construct: human glypican 4, recombinant protein from R&D Systems; source: bought: R&D Systems
T17 sequence (O75487 19-529): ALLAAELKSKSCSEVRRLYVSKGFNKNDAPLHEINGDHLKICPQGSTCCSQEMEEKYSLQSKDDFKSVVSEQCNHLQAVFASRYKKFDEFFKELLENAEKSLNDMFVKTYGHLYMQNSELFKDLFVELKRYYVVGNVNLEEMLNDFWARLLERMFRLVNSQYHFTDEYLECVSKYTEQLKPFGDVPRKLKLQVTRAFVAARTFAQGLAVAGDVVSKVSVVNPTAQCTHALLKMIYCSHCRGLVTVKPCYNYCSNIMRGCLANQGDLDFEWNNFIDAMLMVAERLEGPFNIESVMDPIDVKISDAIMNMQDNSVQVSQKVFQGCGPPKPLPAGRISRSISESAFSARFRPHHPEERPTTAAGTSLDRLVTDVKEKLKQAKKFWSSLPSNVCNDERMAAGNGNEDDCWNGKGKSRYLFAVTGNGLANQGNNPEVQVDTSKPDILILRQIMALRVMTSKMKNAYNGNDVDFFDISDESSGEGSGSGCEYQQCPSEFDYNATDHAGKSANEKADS

[20] = target: T18, recombinant human GPC1 protein (Homo sapiens, UniProt P35052); assay: ELISA; plates coated with recombinant human GPC2, GPC1 and GPC3; mouse hybridoma supernatant containing 1 μg/ml of each mAb; detected with goat anti-mouse IgG-HRP; settings: one partner purified
T18 construct: human glypican 1, recombinant protein from R&D Systems; source: bought: R&D Systems
T18 sequence (P35052 24-530): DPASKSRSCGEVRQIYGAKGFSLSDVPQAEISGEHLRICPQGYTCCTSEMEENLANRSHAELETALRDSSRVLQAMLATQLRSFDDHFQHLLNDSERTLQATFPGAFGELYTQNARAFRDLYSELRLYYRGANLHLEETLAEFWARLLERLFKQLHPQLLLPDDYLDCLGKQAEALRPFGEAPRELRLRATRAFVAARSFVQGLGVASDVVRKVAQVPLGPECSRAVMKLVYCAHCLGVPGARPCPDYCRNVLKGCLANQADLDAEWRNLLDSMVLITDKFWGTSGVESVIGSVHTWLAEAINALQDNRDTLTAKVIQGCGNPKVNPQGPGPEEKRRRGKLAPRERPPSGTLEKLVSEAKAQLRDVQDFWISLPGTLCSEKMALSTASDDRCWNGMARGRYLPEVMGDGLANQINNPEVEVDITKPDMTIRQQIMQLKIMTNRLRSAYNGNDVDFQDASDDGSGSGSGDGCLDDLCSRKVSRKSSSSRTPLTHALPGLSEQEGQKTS

[21] = target: T19, recombinant human GPC3 protein (Homo sapiens, UniProt P51654); assay: as above; settings: one partner purified
T19 construct: human glypican 3, recombinant protein from R&D Systems; source: bought: R&D Systems
T19 sequence (P51654 25-580): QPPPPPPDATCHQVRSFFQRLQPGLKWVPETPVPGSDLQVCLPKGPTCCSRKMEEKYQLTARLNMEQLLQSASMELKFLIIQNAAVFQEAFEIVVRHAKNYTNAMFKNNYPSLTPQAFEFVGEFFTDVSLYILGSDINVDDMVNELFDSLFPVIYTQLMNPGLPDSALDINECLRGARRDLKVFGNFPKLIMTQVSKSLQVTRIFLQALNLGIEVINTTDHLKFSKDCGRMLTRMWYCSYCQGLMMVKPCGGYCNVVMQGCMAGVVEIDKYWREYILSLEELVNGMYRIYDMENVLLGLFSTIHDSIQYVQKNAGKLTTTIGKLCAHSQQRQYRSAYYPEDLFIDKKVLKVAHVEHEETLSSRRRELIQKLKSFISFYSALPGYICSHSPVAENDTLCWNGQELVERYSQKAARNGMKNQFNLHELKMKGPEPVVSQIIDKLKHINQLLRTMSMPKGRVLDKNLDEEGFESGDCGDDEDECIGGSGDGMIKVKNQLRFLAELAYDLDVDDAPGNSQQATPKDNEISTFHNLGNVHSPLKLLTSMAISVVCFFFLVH

Chain of cell surface GPC2 on neuroblastoma cells (Q8N158 24-554): as the sequence (Q8N158 24-554) above
Chain of human GPC2 stably overexpressed on G10 (A431) and F8 (IMR5) cells (Q8N158 24-554): as above

B1: CT3 monoclonal antibody (antibody, V domains shown)
VH: EVQLQQSGPELVKPGASVKMSCKASRFTFTDYNIHWVKQSPGKTLEWIGYINPNNGDIFYKQKFNGKATLTINKSSNTAYMELRSLTSEDSAVYYCVRSSNIRYTFDRFFDVWGTGTTVTVSS
VL: ENVLTQSPAIMSASLGEKVTMSCRASSSVNYIYWYQQKSDASPKLWIYYTSNLAPGVPARFSGSGSGNSYSLTISSMEGEDAATYYCQQFSSSPSTFGTGTKLELK
notes: variable regions were cloned by 5'RACE; EM maps of the CT3 Fab/GPC2 complex deposited at wwPDB (deposition ID D_1000256119); Mouse mAb raised against the 50-residue C-terminal (exon 10) peptide of GPC2; also called CT3 mAb; source: mouse hybridoma (parental clone 2); hybridoma supernatant and purified mAb
In the case of B1, the “cytotoxicity of CT3 CAR T cells (CT3 as scFv in a CAR with CD8α hinge) on NBEB cells, xCELLigence real-time analysis, E:T ratio 1:1, 25 h” value [1] is reported as 74%, the “cytotoxicity of CT3 CAR T cells (CT3 as scFv in a CAR with CD8α hinge) on SKNAS cells, xCELLigence real-time analysis, E:T ratio 1:1, 25 h” value [1] is reported as 43% and the “lysis of NB PDX-derived cells by CT3 CAR T cells (CT3 as scFv in a 4-1BB CAR), luciferase-based killing assay, E:T ratio 25:1, 24 to 72 h of co-culture” value [1] is reported as 80%. For the same binder, the “lysis of G10 and F8 cells (high GPC2) by CT3 CAR T cells (CT3 as scFv in a 4-1BB CAR), luciferase-based killing assay, 24 h, E:T ratio 3:1” value [2] was roughly 70%, the Kd [3] was 0.5 nM and the binding result [4] was “no binding (tested: 1 μg/ml of CT3)”. B1: no binding (tested: 1 μg/ml of CT3) [5]; no binding (tested: 1 μg/ml of CT3) [6]; no binding (tested: 1 μg/ml of CT3) [7]. B1: no binding (tested: 1 μg/ml of CT3) [8]; no binding (tested: 1 μg/ml of CT3) [9]; no binding (tested: 1 μg/ml of CT3) [10]. B1: no binding (tested: 1 μg/ml of CT3) [11]; no binding (tested: 1 μg/ml of CT3) [12]; no binding (tested: 1 μg/ml of CT3) [13]. B1: no binding (tested: 1 μg/ml of CT3) [14]; no binding (tested: 1 μg/ml of CT3) [15]; no binding (tested: 1 μg/mL of CT3) [16]. B1: no binding (tested: 1 μg/mL of CT3) [17]; binds [18]; no binding (tested: 1 μg/mL of CT3) [19]. B1: no binding (tested: 1 μg/ml of each mAb) [20]; no binding (tested: 1 μg/ml of each mAb) [21].
